# Test results as given in article doi:10.1101/2021.08.11.455960.
# Columns and labels:
# [1] = biological target: human angiotensin-converting enzyme 2 ectodomain (human) (UniProt Q9BYF1); assay: SPR
# [2] = biological target: Rhinolophus affinis angiotensin-converting enzyme 2 ectodomain (Rhinolophus affinis); assay: SPR
# Chain of UniProt Q9BYF1 (Q9BYF1 19-615): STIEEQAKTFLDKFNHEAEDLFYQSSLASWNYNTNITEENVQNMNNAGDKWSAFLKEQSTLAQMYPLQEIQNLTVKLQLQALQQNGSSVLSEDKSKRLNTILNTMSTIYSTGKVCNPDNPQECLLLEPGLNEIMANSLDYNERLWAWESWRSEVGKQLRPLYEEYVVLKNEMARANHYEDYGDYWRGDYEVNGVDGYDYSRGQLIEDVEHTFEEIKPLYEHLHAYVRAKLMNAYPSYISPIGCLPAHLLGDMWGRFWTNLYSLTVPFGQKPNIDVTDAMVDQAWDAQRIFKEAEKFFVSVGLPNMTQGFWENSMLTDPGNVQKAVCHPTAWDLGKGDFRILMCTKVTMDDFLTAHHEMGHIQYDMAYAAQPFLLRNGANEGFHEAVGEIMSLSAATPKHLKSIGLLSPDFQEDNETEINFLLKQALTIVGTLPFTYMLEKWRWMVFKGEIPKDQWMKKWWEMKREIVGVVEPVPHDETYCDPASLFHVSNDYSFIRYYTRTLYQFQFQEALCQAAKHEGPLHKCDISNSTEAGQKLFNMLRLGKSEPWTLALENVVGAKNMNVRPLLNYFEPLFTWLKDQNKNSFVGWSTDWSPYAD
substance,measurement,setting,value
RaTG13 spike receptor binding domain (domain or fragment),Kd,[1],21 nM
same,Kd,[2],12 nM
